Results as given in patent US20200181277A1 (Genmab, published 2020).
Positions count from the first letter of the chain named. Names and notes keep the numbering of the source.

Columns and labels:
human 4-1BB = human 4-1BB (human, UniProt Q07011 24-255); experiment: cell-based or functional assay
human CD40 = human CD40 (human, UniProt P25942 21-277); experiment: cell-based or functional assay
purified human C1q [1] = biological target: T1, purified human C1q (human, UniProt P02745 23-245; P02746 28-253; P02747 29-245); experiment: C1q binding ELISA: plate coated with 1 µg/mL antibody, purified C1q titrated 0.010-30 µg/mL; SD 0.8, n 3
T1 construct: Purified C1q, Quidel Cat # A400; multimer of A, B and C chains
Protocol: (§1) A binding ELISA was performed to evaluate the effect of different substitutions on C1q binding. […] Plates were washed and blocked for 1 hour at RT with 200 μL/well 0.5×PBS supplemented with 0.025% Tween 20 and 0.1% gelatin while shaking. […] The reaction was stopped by the addition of 100 μL 2% oxalic acid. Absorbance was measured at 405 nm in a BioTek EL808 Microplate Reader (BioSPX). Log transformed data were analyzed by fitting sigmoidal dose-response curves with variable slope using GraphPad Prism software.

purified human C1q [2] = biological target: T1, purified human C1q; experiment: C1q binding ELISA: plate coated with 1 µg/mL antibody, purified C1q titrated 0.010-30 µg/mL; SD 0.1, n 3
Protocol: as §1

purified human C1q [3] = biological target: T1, purified human C1q; experiment: C1q binding ELISA: plate coated with 1 µg/mL antibody, purified C1q titrated 0.010-30 µg/mL; SD 0.2, n 3
Protocol: as §1

purified human C1q [4] = biological target: T1, purified human C1q; experiment: C1q binding ELISA (Example 6): plate coated with 1 µg/mL antibody, purified C1q titrated; SD 0.1, n 3
Protocol: as §1

purified human C1q [5] = biological target: T1, purified human C1q; experiment: C1q binding ELISA (Example 6): plate coated with 1 µg/mL antibody, purified C1q titrated; SD 3.9, n 3
Protocol: as §1

human CD40, sequence (P25942 21-277): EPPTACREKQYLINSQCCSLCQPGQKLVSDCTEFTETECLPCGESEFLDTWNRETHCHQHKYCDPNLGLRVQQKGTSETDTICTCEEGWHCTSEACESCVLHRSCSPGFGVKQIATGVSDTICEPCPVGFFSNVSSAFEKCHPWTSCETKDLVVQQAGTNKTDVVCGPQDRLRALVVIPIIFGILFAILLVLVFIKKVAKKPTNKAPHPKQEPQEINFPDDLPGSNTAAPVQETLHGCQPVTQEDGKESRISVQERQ
human 4-1BB, sequence (Q07011 24-255): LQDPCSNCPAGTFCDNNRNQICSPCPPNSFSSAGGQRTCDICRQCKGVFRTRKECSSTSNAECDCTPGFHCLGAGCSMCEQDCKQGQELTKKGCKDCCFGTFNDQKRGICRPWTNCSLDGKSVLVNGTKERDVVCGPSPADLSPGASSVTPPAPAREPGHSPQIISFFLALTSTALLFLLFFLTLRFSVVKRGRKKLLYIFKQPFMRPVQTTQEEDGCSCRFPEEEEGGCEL

B1: IgG1-BMS-663513-K326W/E333S/E430G (antibody, V domains shown)
VH: QVQLQQWGAGLLKPSETLSLTCAVYGGSFSGYYWSWIRQSPEKGLEWIGEINHGGYVTYNPSLESRVTISVDTSKNQFSLKLSSVTAADTAVYYCARDYGPGNYDWYFDLWGRGTLVTVSS
VL: EIVLTQSPATLSLSPGERATLSCRASQSVSSYLAWYQQKPGQAPRLLIYDASNRATGIPARFSGSGSGTDFTLTISSLEPEDFAVYYCQQRSNWPPALTFGGGTKVEIK
Human 4-1BB
  4-1BB signaling, luciferase reporter Jurkat cells, EC50: 0.0329 µg/mL

B2: IgG1-CD40-SGN40 (antibody)
heavy: not shown
VL: DIQMTQSPSSLSASVGDRVTITCRSSQSLVHSNGNTFLHWYQQKPGKAPKLLIYTVSNRFSGVPSRFSGSGSGTDFTLTISSLQPEDFATYFCSQTTHVPWTFGQGTKVEIK
Human CD40
  CD40 response, luciferase reporter cells, EC50: 3.36 µg/mL

B3: IgG1-CD40-SGN40-E430G (antibody)
heavy: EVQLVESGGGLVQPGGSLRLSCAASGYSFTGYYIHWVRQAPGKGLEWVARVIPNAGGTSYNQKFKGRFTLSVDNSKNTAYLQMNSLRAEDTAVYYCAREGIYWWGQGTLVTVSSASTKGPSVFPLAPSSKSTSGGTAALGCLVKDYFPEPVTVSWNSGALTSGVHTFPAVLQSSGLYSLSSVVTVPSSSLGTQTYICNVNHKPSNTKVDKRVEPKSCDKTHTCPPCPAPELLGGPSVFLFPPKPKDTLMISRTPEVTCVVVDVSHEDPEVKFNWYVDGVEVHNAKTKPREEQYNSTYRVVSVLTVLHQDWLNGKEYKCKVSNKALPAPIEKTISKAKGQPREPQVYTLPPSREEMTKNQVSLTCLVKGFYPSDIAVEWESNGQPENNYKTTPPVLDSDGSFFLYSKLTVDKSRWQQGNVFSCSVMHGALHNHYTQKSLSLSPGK
VL: B2 VL
Human CD40
  CD40 response, luciferase reporter cells, EC50: 0.336 µg/mL

B4: IgG1-CD40-SGN40-K326W/E333S/E430G (antibody)
heavy: EVQLVESGGGLVQPGGSLRLSCAASGYSFTGYYIHWVRQAPGKGLEWVARVIPNAGGTSYNQKFKGRFTLSVDNSKNTAYLQMNSLRAEDTAVYYCAREGIYWWGQGTLVTVSSASTKGPSVFPLAPSSKSTSGGTAALGCLVKDYFPEPVTVSWNSGALTSGVHTFPAVLQSSGLYSLSSVVTVPSSSLGTQTYICNVNHKPSNTKVDKRVEPKSCDKTHTCPPCPAPELLGGPSVFLFPPKPKDTLMISRTPEVTCVVVDVSHEDPEVKFNWYVDGVEVHNAKTKPREEQYNSTYRVVSVLTVLHQDWLNGKEYKCKVSNWALPAPISKTISKAKGQPREPQVYTLPPSREEMTKNQVSLTCLVKGFYPSDIAVEWESNGQPENNYKTTPPVLDSDGSFFLYSKLTVDKSRWQQGNVFSCSVMHGALHNHYTQKSLSLSPGK
VL: B2 VL
Human CD40
  CD40 response, luciferase reporter cells, EC50: 0.018 µg/mL

B5: IgG1-CD40-CP870893 (antibody)
heavy: not shown
VL: DIQMTQSPSSVSASVGDRVTITCRASQGIYSWLAWYQQKPGKAPNLLIYTASTLQSGVPSRFSGSGSGTDFTLTISSLQPEDFATYYCQQANIFPLTFGGGTKVEIK
Human CD40
  CD40 response, luciferase reporter cells, EC50: 0.187 µg/mL

B6: IgG1-CD40-CP870893-K326W/E333S/E430G (antibody)
heavy: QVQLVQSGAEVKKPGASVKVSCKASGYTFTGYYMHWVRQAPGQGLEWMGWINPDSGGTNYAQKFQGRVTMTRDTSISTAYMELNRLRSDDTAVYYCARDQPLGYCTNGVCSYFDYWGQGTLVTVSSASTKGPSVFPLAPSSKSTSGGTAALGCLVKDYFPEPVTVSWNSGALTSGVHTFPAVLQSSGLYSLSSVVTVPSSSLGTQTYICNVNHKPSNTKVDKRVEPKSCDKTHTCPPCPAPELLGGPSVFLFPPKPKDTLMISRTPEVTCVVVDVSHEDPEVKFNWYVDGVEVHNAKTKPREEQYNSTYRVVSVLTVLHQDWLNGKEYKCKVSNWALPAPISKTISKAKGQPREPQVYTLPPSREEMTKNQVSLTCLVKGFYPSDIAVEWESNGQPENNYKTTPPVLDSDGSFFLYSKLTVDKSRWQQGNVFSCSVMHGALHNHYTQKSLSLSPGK
VL: B5 VL
Human CD40
  CD40 response, luciferase reporter cells, EC50: 0.0459 µg/mL

B7: IgG1-hDR5-01-G56T-E333A/P396L/E430G (antibody)
heavy: EVQLQQSGAEVVKPGASVKLSCKASGFNIKDTFIHWVKQAPGQGLEWIGRIDPANTNTKYDPKFQGKATITTDTSSNTAYMELSSLRSEDTAVYYCVRGLYTYYFDYWGQGTLVTVSSASTKGPSVFPLAPSSKSTSGGTAALGCLVKDYFPEPVTVSWNSGALTSGVHTFPAVLQSSGLYSLSSVVTVPSSSLGTQTYICNVNHKPSNTKVDKRVEPKSCDKTHTCPPCPAPELLGGPSVFLFPPKPKDTLMISRTPEVTCVVVDVSHEDPEVKFNWYVDGVEVHNAKTKPREEQYNSTYRVVSVLTVLHQDWLNGKEYKCKVSNKALPAPIAKTISKAKGQPREPQVYTLPPSREEMTKNQVSLTCLVKGFYPSDIAVEWESNGQPENNYKTTPLVLDSDGSFFLYSKLTVDKSRWQQGNVFSCSVMHGALHNHYTQKSLSLSPGK
light: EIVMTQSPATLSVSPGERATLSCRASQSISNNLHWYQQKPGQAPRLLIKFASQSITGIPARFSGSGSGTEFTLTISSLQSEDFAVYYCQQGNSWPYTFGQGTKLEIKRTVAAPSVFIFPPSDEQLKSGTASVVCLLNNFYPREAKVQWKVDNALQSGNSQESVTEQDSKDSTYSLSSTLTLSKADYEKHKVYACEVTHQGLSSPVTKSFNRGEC
notes: IgG1,kappa
Purified human C1q [1]
  EC50: 1.9 µg/mL

B8: IgG1-hDR5-01-G56T-K326A/E333A/E430G (antibody)
heavy: B7 heavy with K327A, L397P
light: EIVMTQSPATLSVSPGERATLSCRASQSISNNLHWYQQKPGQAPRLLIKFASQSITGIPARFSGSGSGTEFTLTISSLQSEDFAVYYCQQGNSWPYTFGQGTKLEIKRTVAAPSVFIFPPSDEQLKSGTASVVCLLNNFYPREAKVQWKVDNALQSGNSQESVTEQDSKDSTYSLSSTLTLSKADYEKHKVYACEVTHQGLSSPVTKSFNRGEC
notes: IgG1,kappa
Purified human C1q [2]
  EC50: 0.8 µg/mL

B9: IgG1-hDR5-01-G56T-K326A/E333A/P396L/E430G (antibody)
heavy: B7 heavy with K327A
light: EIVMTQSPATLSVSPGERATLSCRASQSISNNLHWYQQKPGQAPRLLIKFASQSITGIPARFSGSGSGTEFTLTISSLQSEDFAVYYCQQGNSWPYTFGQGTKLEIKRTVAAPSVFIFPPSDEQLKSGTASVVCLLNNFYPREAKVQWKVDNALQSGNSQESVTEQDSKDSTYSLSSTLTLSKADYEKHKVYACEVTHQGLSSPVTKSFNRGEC
notes: IgG1,kappa
Purified human C1q [3]
  EC50: 1.3 µg/mL

B10: IgG1-hDR5-01-G56T-K326A/P396L/E430G (antibody)
heavy: B7 heavy with K327A, A334E
light: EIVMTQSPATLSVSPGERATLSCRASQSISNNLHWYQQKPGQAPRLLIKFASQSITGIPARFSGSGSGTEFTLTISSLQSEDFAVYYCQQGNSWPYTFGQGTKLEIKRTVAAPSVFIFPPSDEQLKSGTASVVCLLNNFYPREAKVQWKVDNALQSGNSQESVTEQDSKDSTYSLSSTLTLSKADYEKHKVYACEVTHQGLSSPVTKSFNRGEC
notes: IgG1,kappa
Purified human C1q [2]
  EC50: 0.6 µg/mL

B11: IgG1-hDR5-01-G56T-S267E/H268F/S324T/E430G (antibody)
heavy: B7 heavy with S268E, H269F, S325T, A334E, L397P
light: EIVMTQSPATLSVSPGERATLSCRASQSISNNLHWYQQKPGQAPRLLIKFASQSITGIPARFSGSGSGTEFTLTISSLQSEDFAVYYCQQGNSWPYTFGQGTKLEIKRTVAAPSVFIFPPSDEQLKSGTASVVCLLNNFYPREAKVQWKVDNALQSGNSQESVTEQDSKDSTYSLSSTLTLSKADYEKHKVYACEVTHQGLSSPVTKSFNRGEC
notes: IgG1,kappa
Purified human C1q [4]
  EC50: 0.5 µg/mL

B12: IgG113F-hDR5-01-G56T-E430G (antibody)
heavy: B7 heavy with K275Q, N277K, Y301F, A334E, A340T, N385S, K393N, L397P, V398M, V423I
light: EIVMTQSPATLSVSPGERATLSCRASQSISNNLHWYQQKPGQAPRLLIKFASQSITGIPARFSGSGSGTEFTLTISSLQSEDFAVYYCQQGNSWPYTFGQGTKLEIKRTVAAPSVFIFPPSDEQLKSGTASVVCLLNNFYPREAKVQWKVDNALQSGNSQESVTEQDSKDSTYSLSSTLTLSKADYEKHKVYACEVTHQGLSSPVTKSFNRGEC
notes: also called IgG113F-E430G
Purified human C1q [5]
  EC50: 11.4 µg/mL
